In article PMC6579858:

Assay: FACS of transfected HeLa
Conditions: glycan lost; control: wild type MOG

| Protein | expression_or_secretion |
| --- | --- |
| myelin oligodendrocyte glycoprotein (MOG): N31A (protein) parent chain: MASLSRPSLPSCLCSFLLLLLLQVSSSYAGQFRVIGPRHPIRALVGDEVELPCRISPGKNATGMEVGWYRPPFSRVVHLYRNGKDQDGDQAPEYRGRTELLKDAIGEGKVTLRIRNVRFSDEGGFTCFFRDHSYQEEAAMELKVEDPFYWVSPGVLVLLAVLPVLLLQITVGLIFLCLQYRLRGKLRAEIENLHRTFDPHFLRVPCWKITLFVIVPVLGPLVALIICYNWLHRRLAGQFLEELRNPF | no change |
| myelin oligodendrocyte glycoprotein (MOG): N31D (protein) parent chain: MASLSRPSLPSCLCSFLLLLLLQVSSSYAGQFRVIGPRHPIRALVGDEVELPCRISPGKNATGMEVGWYRPPFSRVVHLYRNGKDQDGDQAPEYRGRTELLKDAIGEGKVTLRIRNVRFSDEGGFTCFFRDHSYQEEAAMELKVEDPFYWVSPGVLVLLAVLPVLLLQITVGLIFLCLQYRLRGKLRAEIENLHRTFDPHFLRVPCWKITLFVIVPVLGPLVALIICYNWLHRRLAGQFLEELRNPF | no change |
